Data as given in article doi:10.1101/2025.08.23.671895, “Detergent-free reconstitution of transmembrane proteins in giant liposomes of complex curvature by the Synthetic Membrane Transfer” (bioRxiv, 2025).

Molecular target: the molecule itself
Assay: cryo-EM structure; maltoporin reconstituted in amphipol A8-35 (filaments); 2D classification and 3D reconstruction

B1: maltoporin (natural protein, UniProt P02943 26-446, looked up)
chain: VDFHGYARSGIGWTGSGGEQQCFQTTGAQSKYRLGNECETYAELKLGQEVWKEGDKSFYFDTNVAYSVAQQNDWEATDPAFREANVQGKNLIEWLPGSTIWAGKRFYQRHDVHMIDFYYWDISGPGAGLENIDVGFGKLSLAATRSSEAGGSSSFASNNIYDYTNETANDVFDVRLAQMEINPGGTLELGVDYGRANLRDNYRLVDGASKDGWLFTAEHTQSVLKGFNKFVVQYATDSMTSQGKGLSQGSGVAFDNEKFAYNINNNGHMLRILDHGAISMGDNWDMMYVGMYQDINWDNDNGTKWWTVGIRPMYKWTPIMSTVMEIGYDNVESQRTGDKNNQYKITLAQQWQAGDSIWSRPAIRVFATYAKWDEKWGYDYTGNADNNANFGKAVPADFNGGSFGRGDSDEWTFGAQMEIWW
notes: maltoporin, a beta-barrel transmembrane protein; One protein embedded in two polymers (SMA or amphipol A8-35); E. coli LamB is my surmise; also called maltoporin-SMA; maltoporin-Apol; source: purified using DDM-mediated extraction, detergent exchanged with SMA (bio-beads) or amphipol A8-35
stoichiometry N: 3
